These results are taken from patent US8247376B2, “NGAL for reduction and amelioration of ischemic and nephrotoxic injuries” (The Trustees of Columbia University, priority 2004, dated 2012).

Data set [1] in a line: NGAL trafficking after intraperitoneal or subcutaneous injection. Type of data set: in vivo, mice. From the text:
Recombinant human and mouse GST-NGAL were expressed in BL21 or XL1-Blue strains of E. coli (Stratagene) with additional ferric sulfate (50 Micro Molar, Sigma-Aldrich Co.). NGAL was isolated using Glutathione Sepharose 4B beads (Amersham Biosciences), eluted by thrombin cleavage (Sigma-Aldrich Co.; St. Louis, Mo.) and then further purified by gel filtration (Superdex75, SMART system, Amersham Biosciences) and examined by Coomassie gels (Biorad). BL-21 derived NGAL was loaded with iron free or iron saturated enterochelin, a siderophore (EMC Microcollections) using a 5 fold molar excess. Unbound siderophore (0.7 KD) was removed by washing (Microcon YM-10) with PBS. To produce ^55Fe or gallium (Ga) loaded NGAL we incubated the iron-free enterochelin NGAL complex with equimolar ^55Fe (18mCi) or Ga in NaCl (150 mM) Hepes (20 mM; pH 7.4) and the complex was washed 3 times (10K filter). Iodobeads (Pierce) were used to label NGAL with ^125I and unincorporated ^125I was removed by gel filtration (PD-10 column) followed by extensive dialysis (7 kDa cut off membrane, Pierce) against PBS. Alexa-568 and fluorescein isothiocyanate (Molecular Probes) was coupled to NGAL, according to the manufacturer, and then extensively dialyzed. Protein concentration was determined by Coomassie gels in comparison with bovine serum albumin standard.
To detect delivery of NGAL to the kidney rNGAL (10 or 100 μg), Alexa 568-NGAL (100 μg), ^125I-NGAL ([…], 2×10^6 cpm), or ^55Fe loaded enterochelin-NGAL (10 μg, 1×10^6 cpm) was injected into the peritoneum and blood, urine, kidney and liver samples were obtained. NGAL was detected by immunoblot. Alexa-568 NGAL was detected by confocal microscopy (LSM Meta Detector) and NGAL mediated iron trafficking was detected by scintillation counter and by light microscopic radioautography of Epon embedded kidneys. Slides were exposed to emulsion (Polyscience) for 1 week and then developed with Microdol and counterstained with Toluidine blue. To detect lysosomes in the proximal tubule, mice were injected with Fluorescein Dextran (46 kD; 0.5 mg; Sigma) 24 hours before Alexa 568 NGAL injections. LAMP1 (Santa Cruz) was detected in cryostat sections of 4% paraformaldehyde fixed kidneys.

The subject of data set [2] is mouse model of ATN or ischemia/reperfusion injury. Put plainly: Kidney histology in mouse ATN model. Type of data set: in vivo, mice. The following applies: NGAL-treated ATN kidneys vs ATN. The procedure: Male C57BL/6 mice (20-25 gr; Charles River) were anesthetized with intraperitoneal pentobarbital (50 mg/kg) and placed on a heating pad under a warming light to maintain 37© core body temperature. Kidneys were exposed through an abdominal section and the right kidney was either removed or its vascular pedicle and ureter ligated. The vascular pedicle of the left kidney or both kidneys was clamped by a microaneurysm clip (Kent Scientific) for 30 minutes after right nephrectomy. This period of ischemia generated reproducible renal injury but minimized mortality. During the procedure, PBS (0.5 ml) was used to dampen the peritoneum. The animal was closed with 5-0 Nylon. Saline, NGAL, retinol-loaded retinol binding protein (RBP), enterochelin, or desferroxamine mesylate (DFO) were injected into the peritoneum or subcutaneously 15 min. prior to ischemia or 1-2 hr after reperfusion.
After 6 or 24 hr of reperfusion, heparinized plasma, urine and kidney samples were obtained to measure NGAL (polyclonal 1:500), Heme oxygenase-1 (Stressgen, 1:2000), E-cadherin (BD Transduction Labs, 1:2000), N-cadherin (BD Transduction Labs, 1:3000) and GAPDH (Chemicon International, 1:3000) using immunoblots. Plasma was also used for creatinine and blood urea nitrogen colorimetric assays. Sagittal sections of the kidney were fixed in 4% formalin, or were snap frozen for mRNA and protein analysis. […]

A further data set deals with endogenous NGAL. The data set can be described thus: Endogenous NGAL expression after exogenous NGAL (real time PCR, immunoblot). Type of data set: in vivo, mice. Further details: reduction of the increase in endogenous NGAL RNA / reduction of endogenous NGAL protein in the kidney: dose or concentration left out as unconfirmed. The source says:
After 6 or 24 hr of reperfusion, heparinized plasma, urine and kidney samples were obtained to measure NGAL (polyclonal 1:500), Heme oxygenase-1 (Stressgen, 1:2000), E-cadherin (BD Transduction Labs, 1:2000), N-cadherin (BD Transduction Labs, 1:3000) and GAPDH (Chemicon International, 1:3000) using immunoblots. Plasma was also used for creatinine and blood urea nitrogen colorimetric assays. Sagittal sections of the kidney were fixed in 4% formalin, or were snap frozen for mRNA and protein analysis. Paraffin-embedded sections (5 μm) were stained with hematoxylin-eosin or by an in situ kit (Fluorescein-TUNEL, Roche) for apoptotic nuclei or for total nuclei (Toprol, Molecular Probes). For cell proliferation analysis, BrdU was injected into the peritoneum 1 hour before sacrifice, and cryostat sections were stained with anti-BrdU (Roche) according to the manufacturer.
Total RNA was extracted from mouse kidneys using RNeasy mini kit (Qiagen) with on-column DNase digestion according to the manufacturer's instructions. The cDNA template was synthesized using Omniscript Reverse Transcriptase and oligo-dT primer (Qiagen). The PCR reaction was carried out using iQ SYBR green super mix and MyiQ single-color real-time PCR detection system (Biorad) with incubation times of 2 min at 95° C., followed by 40 cycles of 95° C./30 s and 60° C./30 s. Specificity of the amplification was checked by melting curve analysis and by agarose gel electrophoresis. Primer sequences for mouse NGAL mRNA (Genbank NM_008491) were […] (forward primer, positions 93-112) and […] (reverse, 576-557). Sequences for mouse β-actin mRNA (Genbank X03672) were […] (forward, 415-434) and […] (reverse, 696-677). Each plate included a dilution series of standard sample, which was used to determine mRNA quantities. The NGAL mRNA content was normalized by β-actin mRNA.

Data set [3] is described as follows: Cofactor-dependent ^55Fe binding to NGAL (10 kDa filter retention). The procedure: The urine fraction was obtained by passing fresh urine sequentially through 10 kDa and 3 kDa membranes (YM-10 and YM-3, Amicon). The mixture was then washed three times on 10 kDa membrane (YM-10, Amicon). Iron-free enterochelin-loaded NGAL (rather than NGAL without siderophore) served as a positive control for iron capture. Ferric citrate (1 mM) or iron-loaded enterochelin (Sid:Fe, 50 μM) were used as competitors of ^55Fe binding.

Entries after “also recorded” stand apart in the source; their conditions may differ.

B1: NGAL: Purified endotoxin-free recombinant NGAL expressed as GST fusion protein in bacteria, thrombin cleaved (protein, UniProt P80188 21-198, looked up)
Neutrophil …: QDSTSDLIPAPPLSKVPLQQNFQDNQFQGKWYVVGLAGNAILREDKDPQKMYATIYELKEDKSYNVTSVLFRKKKCDYWIRTFVPGCQPGEFTLGNIKSYPGLTSYLVRVVSTNYNQHAMVFFKKVSQNREYFKITLYGRTKELTSELKENFIRFSKSLGLPENHIVFPVPIDQCIDG
As to B1, in data set [1] (injection of 100 μg exogenous NGAL), the “time to appearance of NGAL in the urine” value was not above 10 min. In data set [1] (mouse, in vivo), the “injected NGAL recovered in the urine in the first hour” value is 0.1-0.2%. Besides, the “kidney histology (tubule morphology)” value in data set [2] is “normal epithelial morphology was preserved in the S1 and S2 segments of the proximal tubule; also recorded: preservation of cortical tubules, but residual cortical-medullary casts”. Also, in the data set on endogenous NGAL (24 hours of reperfusion, real time PCR), the “reduction of the increase in endogenous NGAL RNA” value is reported as 72%±16. Moreover, the “endogenous NGAL protein in the kidney” value in the data set with endogenous NGAL (NGAL-treated ischemia, ischemia 73±7) turned out to be 29 ± 7 µg/g. In addition, in the data set on endogenous NGAL (immunoblot), the “reduction of endogenous NGAL protein in the kidney” value is 2.5 fold. In addition, the “NGAL molecules that bound iron” value in data set [3] (30 μl of mouse urine) is “approximately 20%”. In addition, the “retention of ^55Fe” value in data set [3] (with mouse urine fraction (<3,000 Da), washed on 10 kDa filter) is given as “permitted the retention of ^55Fe”.
